Laboratory results reported in patent US20230374157A1.

Columns and labels:
[1] = target: His-tagged human EGFR extracellular domain (expressed and purified in-house) (human) (UniProt P00533); assay: BLI, antibody on AHC tips, monomeric EGFR ECD in solution, 1:1 fit
[2] = target: His-tagged human HER3 extracellular domain (Acro ER3-H5223) (human) (UniProt P21860); assay: BLI, antibody on AHC tips, monomeric HER3 ECD in solution, 1:1 fit

Kd [1]: 14.6 nM | koff [1]: 0.00438 s⁻¹ | kon [1]: 300000 M⁻¹ s⁻¹ | Kd [2]: 4.29 nM | koff [2]: 0.000877 s⁻¹ | kon [2]: 205000 M⁻¹ s⁻¹
B1: SI-1C4 (duligotuzumab), 2-in-1 bispecific antibody against EGFR and HER3 (bispecific antibody, from a related filing, V domains shown)
VH: EVQLVESGGGLVQPGGSLRLSCAASGFTLSGDWIHWVRQAPGKGLEWVGEISAAGGYTDYADSVKGRFTISADTSKNTAYLQMNSLRAEDTAVYYCARESRVSFEAAMDYWGQGTLVTVSS
VL: DIQMTQSPSSLSASVGDRVTITCRASQNIATDVAWYQQKPGKAPKLLIYSASFLYSGVPSRFSGSGSGTDFTLTISSLQPEDFATYYCQQSEPEPYTFGQGTKVEIKR
